Assay [1] addresses recombinant human extracellular domain of IGF2R (human) (UniProt P11717). Put plainly: titration ELISA of the Alexa Fluor 647 conjugate on recombinant hIGF2R-ECD, one-site specific binding fit.
Assay [2] has the same target. The experiment in a line: titration ELISA on recombinant hIGF2R-ECD, direct read-out of the Alexa Fluor 647 conjugate (fluorescence intensity 700 nm), one-site specific binding fit (Examples 4.1, 6.1).
For assay [3] the target is unchanged. The experiment in a line: binding assay on plates coated with hIGF2R-ECD, three-fold VHH dilutions, bound VHH detected with anti-VHH antibody (Example 4.1); y axis OD415.
In assay [4] the target is human IGF2R on cells (human) (UniProt P11717). The experiment in a line: cell-based or functional assay.
In another assay the target is rat IGF2R on cells (rat). The experiment in a line: cell-based or functional assay.
For assay [5], the target named is recombinant human extracellular domain of IGF2R (human) (UniProt P11717). Put plainly: binding assay on hIGF2R-ECD coated plates, detection with anti-VHH antibody.
Assay [6] has the same target. Put plainly: titration ELISA on hIGF2R-ECD, direct read out at 647 nm, one-site specific binding fit.
Assay [7] has the same target. The experiment in a line: competition ELISA on human IGF2R ectodomain: 250 nM unlabelled 13E8 against 10 nM labelled 13F11 (competitor: 13F11-A647).

We go through nine molecules from patent publication US20220143204A1.

Residue numbers refer to the chain shown, from its start. A value given as a limit tells only on which side of the number the result lay.

B1: 13F11-13F11 conjugated to Alexa Fluor 647 (VHH, part only; not given: C-terminal cysteine and His tag, not shown: small tags and cut ends)
chain, part: EVQLVESGGRLVQPGDSLRLSCAASGRTFSDNAMGWFRQAPGKERRFVAGISWAGGSTYYSDSVKGRFTISRDNAKNTVYLQMNSLKPEDTAVYYCAAGLRAWVQRMPKDYNYWGQGTQVTVSSGGGGSGGGGSGGGGSEVQLVESGGRLVQPGDSLRLSCAASGRTFSDNAMGWFRQAPGKERRFVAGISWAGGSTYYSDSVKGRFTISRDNAKNTVYLQMNSLKPEDTAVYYCAAGLRAWVQRMPKDYNYWGQGTQVTVSS
modifications: Alexa Fluor 647 by maleimide chemistry on the C-terminal free cysteine
Regarding B1, the Kd in assay [1] is 3.1 nM. Moreover, the Bmax in assay [2] was determined as 63.4.

B2: 13C11 (VHH)
VHH: EVQLVESGGGLVQAGGSLRLSCAASGLTFSSYTMAWYRQAPGKEREVVAAISSGDSIYHEGSVQGRFIISRDNAKNTVYLQMNSLKAEDTAVYYCRANGPGTYWGQGTQVTVSS
As for B2, the concentration giving a half-maximal response (EC50 (read off the curve)) in assay [3] came to 3 nM.

B3: 13G10 (VHH)
VHH: B2 VHH with G61D
Consider B3, for which the half-maximal effective concentration (EC50 (read off the curve)) in assay [3] amounted to 2 nM.

B4: 13F11-13E8 conjugated to Alexa Fluor 647 (VHH, not shown: small tags and cut ends)
chain: EVQLVESGGRLVQPGDSLRLSCAASGRTFSDNAMGWFRQAPGKERRFVAGISWAGGSTYYSDSVKGRFTISRDNAKNTVYLQMNSLKPEDTAVYYCAAGLRAWVQRMPKDYNYWGQGTQVTVSSGGGGSGGGGSGGGGSEVQLVESGGGLVQAGGSLRLSCAASRSISPMGWYRQAPGKQRELVAIMPSSGPPIYADSVQGRFTISRDNAKNTVYLQMNSLKPEDTAVYYCNVGGGYWGQGTQVTVSS
modifications: Alexa Fluor 647 by maleimide chemistry on the C-terminal free cysteine
Consider B4, for which the Kd in assay [1] came out at 2.5 nM. Also, in assay [2], the Bmax was found to be 79.2.

B5: 13E8-13F11 conjugated to IRD800CW (VHH, not shown: small tags and cut ends)
chain: EVQLVESGGGLVQAGGSLRLSCAASRSISPMGWYRQAPGKQRELVAIMPSSGPPIYADSVQGRFTISRDNAKNTVYLQMNSLKPEDTAVYYCNVGGGYWGQGTQVTVSSGGGGSGGGGSGGGGSEVQLVESGGRLVQPGDSLRLSCAASGRTFSDNAMGWFRQAPGKERRFVAGISWAGGSTYYSDSVKGRFTISRDNAKNTVYLQMNSLKPEDTAVYYCAAGLRAWVQRMPKDYNYWGQGTQVTVSS
modifications: IRD800CW by maleimide chemistry on the C-terminal free cysteine
As for B5, the endocytic rate constant, ke was 1.5 min⁻¹ in assay [4] and 0.7 min⁻¹ in the assay with rat IGF2R on cells (rat).

B6: 13E8-13F11 conjugated to Alexa Fluor 647 (VHH, not shown: small tags and cut ends)
chain: B5 chain
modifications: Alexa Fluor 647 by maleimide chemistry on the C-terminal free cysteine
For B6, the Kd in assay [1] amounted to 2.5 nM. In assay [2], the Bmax came to 94.7.

B7: 13F11 (VHH)
VHH: EVQLVESGGRLVQPGDSLRLSCAASGRTFSDNAMGWFRQAPGKERRFVAGISWAGGSTYYSDSVKGRFTISRDNAKNTVYLQMNSLKPEDTAVYYCAAGLRAWVQRMPKDYNYWGQGTQVTVSS
Take B7: the dissociation constant Kd in assay [5] stood at 0.23 nM. Also, the EC50 (read off the curve) in assay [3] amounted to 0.4 nM.

B8: 13F11 conjugated to Alexa Fluor 647 (VHH, not shown: small tags and cut ends)
VHH: B7 VHH
modifications: Alexa Fluor 647 by maleimide chemistry on the C-terminal free cysteine
As to B8, in assay [6], the Kd worked out at 1 nM. In assay [2], the Bmax came out at 20.1.

B9: 13E8 (VHH)
VHH: EVQLVESGGGLVQAGGSLRLSCAASRSISPMGWYRQAPGKQRELVAIMPSSGPPIYADSVQGRFTISRDNAKNTVYLQMNSLKPEDTAVYYCNVGGGYWGQGTQVTVSS
On to B9, for which the decrease of the fluorescence intensity of labelled 13F11 in assay [7] is under 5%.
